Experimental data published in the nanobody polyreactivity screen of Harvey et al. (2022).

Test: yeast display, Sf9 membrane polyspecificity reagent, FACS + sequencing; frameworks hold sequencing errors
In short: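 Polyreactivity labels are assigned by the sorting gate from which each nanobody was recovered. The gates were low and high (top ~1%), set on anti-HA fluorescence for expression and streptavidin fluorescence for reagent binding. Before sorting, galactose-induced (36–48 hours) yeast display cells were stained for 1 hour at 4 °C with 10% biotinylated, detergent-solubilized Sf9 membrane reagent.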

| Sequence | polyreactivity (PSR sort gate) |
| --- | --- |
| QVQLVESGGGLVQAGAILRLICAASGRIFYRYAMGWYRQAPGKERELVAAISSGGGRTYYADSVKGRFTLSRDNAKNTVYLQMNSLKPEDTAVYYCAASGNSYEQTGGYWGQGTQVTVSS | high polyreactivity |
| QVQLVESGGGLVQAGGSLRLSCAASGSTFISNTIGWYRQAPGKERELVAAISSGGDTSYADSVKGRFTISRDNAKNTVYLQMNILKPEDTAVYYCNVDTSATSYSSEYDYWGQGTQVTVSS | low polyreactivity |
| QVQLVESGGGLVQAGGSLRLSCVASGFIFRRNAMGWYRQAPGKERELVATISSGGNTYYADSVKGRFTISRDNAKNTVYLQMNSLKPVDTAVYYCIASDGLPSKLNVYVEFDYWGQCTQVTVSS | low polyreactivity |
| QVQLVESGGGLVQAGGSLRLSCAASGRTFYSYAMGWYRQAPGKERELVAAITSGDSTNYADSVKGRFTISRDNAKNTVYLQMNSLKPEDTAVYYCAAEYSGWYWYQHYNYWGQGTQVTVSS | high polyreactivity |
| QVQLVESGGGLVQAGGSLRLSCAASGSIFNPNAMGWYRQAPGKETELVAAISWISGRTYYADSGKGRFTISRDNAKNTVYLQMISLKTEDTAVYYCAARYPLTQSKYYYWGQWTQVTVSS | high polyreactivity |
| QVQLVESGGGLVQAGGSLRLSCADSGFIFWYYAMGWYRQAPGKERELVAAISWSGDSTYYADSVKWRFTISRDTANNTVYLQMNSLKPEDTAVYYCAVYDELDVFYNGYDYWGQGTQVTVSS | high polyreactivity |
| QVQLVDSGGGLVQAGGSLRLSCAASGFIFHRYAMGWYRQAPGKERELVAAISSSGGSTYYADSVKGRFTISRDNAKNTVYLQMNSLKPEDTAVYYCAAYYHDGYEFNYWGQGTQLTVSS | high polyreactivity |
| QEQLQESGGGQVQAGGSLLLSCAASGNIIPSYYMGWYRQAPGKERELVAAITYGTSTNYADSVKGRFTISRDNAKNTVFLQMISLKPVDTAVYYCAVDFNYGDPLVHWGQGTQVTVSS | high polyreactivity |
| HVQLVESGGGLVQAGGSLRLSCAASGSTFAGNAMGWYRQAPGKEWELVAAIDSSTGSTYYADSVKGRFTISRDNAKNTVNLQMNSLKPEDTAVYYCNKTSFLVKLDYWGQGTQVTVSS | low polyreactivity |
| QVQLVESGGGLVQAGGSLRLSCAASGRIFSAYAMGWYRQAPGKEREFVAAITQSGGSTYYADSVKGRFTISRDNAKNTVYVQMNSLKPEDTAVYYCAAGDAYYTEALPFGEYDYWGQGTQVTVSS | low polyreactivity |
| QVQLVESGGGLVQAGGSLRLSCAASGGMGWYRQAPGKERELVATISSVGSTNYADSVKGRFTISRDNAKNTVYLQMNRLKPEDTAVYYCNATGVQYFLYGYWGQGTQVTVSS | low polyreactivity |
| QVQLVESGGGLVQAGGSLRLSCAASGRIFRSNAIGWYRQAPGKERELVSVITWCGGSTYYADSVKGRFTITRDTAKNTVYIQMNSLKPEDTAVYYCAKRRAAVNGRSYYYYWGQGTQVTVSS | high polyreactivity |
| QVQLVESGGGLVQAGGSLRLSCAASGRIFGTYAMGWYRQAPGKERELVASISYSDGSTYADSVKGRFTISRDNAKNTVYLQMNSLKPEDTAVYYCAADVYYYAQSEDGYWGQGTQVTVSS | low polyreactivity |
| QVQLVESGGGLVQAGGSLRLSCAASGINFSPYAMGWYRQAPGKERELVAAISYSGGSTYYADSVKGRFTISRDNAKNTVYLQMNSLKPEDTAVYYCAVVYSYYLAVLGYWDYDYWGQGTQVTVSS | low polyreactivity |
| QVQLVESGGGLVQAGGSLRLSCAASGSIFHGYAMRWYRQAPGKERELVAAISRNGGGTYYADSVKGRFTISRDNAKNTVYLQMNSLKPEDTAVYYCAVVRYSSRYDYWGQGTQVTVSS | high polyreactivity |
| QVQLVESGGGLVQAGGSLRLSSAASGITFYFYVMGWYRQAPGKERELVADISTSDDSTYYADSVKGRFTISRDNAKNTVYLQMNSLKPEDTAVYYCATATRTYSAWYEYDYWGQGTQVTVSS | low polyreactivity |

| Sequence | polyreactivity (PSR sort gate) |
| --- | --- |
| QVQLVESGGGLVQAGGSLRLSCDASGSIIISYDMGWYRQAPGKERELVAAIRSRVGSTYYSDSVKGRFTISRDNAKNTVYLQMNSLKPEDTAVYYCAADWVWADFDYWGQGTNVTVSS | low polyreactivity |
| QVQLVESGGGLVQAGGSLRLSCAASGITFYTYAMGWYRQAPGKERELVAAISTGGSTYYADSVKGRFTISRDNAKNTVYLQMNSLKPEDTAVYYCAARTFSYPRRAYYYWGQGTQVTVSS | high polyreactivity |
| QVQLVESGGGLVQAGGSLRLSCAASGSIFSYNAMGWYRQAPGKERELVAAISSGDYTYYADSVKGRFTISRDNAKNTVYLQMNSLKPEDTAVYYCAAPYVYSRGLSGDYYWGQGTQVTVSS | high polyreactivity |
| QVQLVESGGGLVQAGRSLRLSCAASGRTYGIYAMGWYRQAPGKERQLVAAITWSGDSTYYADSVKGRFTISRDNAKNTVYLQMNSLKPEDTAVYYCAADYVGVTSVRYDYWGQGTQVTVSS | low polyreactivity |
| QVQLVESGGGLVQAGGSLRLSCAASGFTFANNAMGWYRQAPGKERELVAAITSSGTRTYYADSVKGRFTISRDNAKNTVYLQMNSLKPEDTAVYYCAADKPGRPSRMYYWGQGTQVTVSS | high polyreactivity |
| QVQLVESGGGLGQAGGSLRLSCAASGRIFPKYVMGWYRQAPGKERELVAAIDKSADRTYYADSVKGRFTISRDNAKNTVYLQMNSLKPEDTAVYYCATAGYRLLDYWGQGTQVTVSS | high polyreactivity |
| QVQLVESGGGLVQAGGSHRLSCAASGRIFVYYPRGWYRQAPGIETELVAAINAGRSTNYADSVKGRFTNSRDNAKNNVYLQMNSLKLQDTAVYFCAAVRRSRYSYRGYYWGQGTQVTVSS | high polyreactivity |
| QVQLVESGGGLVQAGCSLRLSCAASGTIFWYYAMGWYRQAPGKERELVAAISSGGSTYYADSVKGRFTISRDNAKNTVYLQMNSLKPEDTAVYYCNVRLRKKIQNSKYDYWGQGTQVTVSS | high polyreactivity |
| QVQLEESGGGVVQAGGSLRLSCAASGGIFNVYVMGWYRQAPGKERELVAAITWRGGSTYYADSVKGRFTISRDNAKNTVYLQMNSLKPEDTAVYYCNADAPFQSSSDGYQVEYWGQGTQVTVSS | low polyreactivity |
| QVQLVESGGGLVQAGGSLRLSCAASGRTFRANAMGWYRQAPGKERELVAAITWDGGSTYYADSVKGRFTISRDNAKNTVYLQMNSLKPEDTAVYYCNTDPYLWGQGTQVTVSS | low polyreactivity |
| QVQLVESGGGLVQAGGSLRLSCAASGSIFPEYAMGWYRQAPGKEREFVATIRWSGDSTYYADSVKGRFTISRDNAKNTVYLQMNSLKPEDTAVYYCAADQGRYGIIGWDDYWGQGTQVTVSS | low polyreactivity |
| QVQLVESGGGLVQAGGSLRLSCAASGITFDYYAMGWYRQAPGKERELVAAISYSGGSTYYADSVKGRFTISRDNAKNTVYLQMNSLKPEDTAVYYCAAETFTISSDYYYWGQGTQVTVSS | low polyreactivity |
| QVQLLDSGGGLVQAGGSLRLSCAASGLILVPNTMGWYRQAPGKERELVADIRSGGTTNYADSVKGRFTISRDNAKNTVYLVMNSLKPEDTAVSYCAKEKYDYVGDYEVDYWGHGTQVTVSS | low polyreactivity |
| QVQLVESGGGLVQAGGSLRLSCAASGSTFVSNAMGWYRPAPGKERELVAAISSSGGRTSYADSVKGRFTISRDNAKNTVYLQMNSLKPEDTAVYYCAARFKSVDYVQYYYWGQGTQVTVSS | low polyreactivity |
| QVQLVESGGGIVQAGGSLRLSCAASGNTFNFYAMGWYRQAPGKERELVASITSGGGTNYADSVKGRFTISRDNAKNTVYLQMNSLKPEDTAVYYCADQFYYHFRYHFDWGLGTQVTVSS | low polyreactivity |
| QVQLVESGGGLVQAGGSLRLSCAASGSIFGRYPMGWYRQAPGKERELVAAISRRGGSTYYADSVKGRFTISRDNAKNTVYLQMNSLKPEDTAVYYCAARPFVKHDYWGQGTQVTVSS | high polyreactivity |
